Values quoted from earlier work in article PMC11209288.

Biological target: inositol 1,4,5-triphosphate receptor (IP3R) (Homo sapiens) (UniProt Q14643)
Chain of UniProt Q14643 (Q14643 whole entry): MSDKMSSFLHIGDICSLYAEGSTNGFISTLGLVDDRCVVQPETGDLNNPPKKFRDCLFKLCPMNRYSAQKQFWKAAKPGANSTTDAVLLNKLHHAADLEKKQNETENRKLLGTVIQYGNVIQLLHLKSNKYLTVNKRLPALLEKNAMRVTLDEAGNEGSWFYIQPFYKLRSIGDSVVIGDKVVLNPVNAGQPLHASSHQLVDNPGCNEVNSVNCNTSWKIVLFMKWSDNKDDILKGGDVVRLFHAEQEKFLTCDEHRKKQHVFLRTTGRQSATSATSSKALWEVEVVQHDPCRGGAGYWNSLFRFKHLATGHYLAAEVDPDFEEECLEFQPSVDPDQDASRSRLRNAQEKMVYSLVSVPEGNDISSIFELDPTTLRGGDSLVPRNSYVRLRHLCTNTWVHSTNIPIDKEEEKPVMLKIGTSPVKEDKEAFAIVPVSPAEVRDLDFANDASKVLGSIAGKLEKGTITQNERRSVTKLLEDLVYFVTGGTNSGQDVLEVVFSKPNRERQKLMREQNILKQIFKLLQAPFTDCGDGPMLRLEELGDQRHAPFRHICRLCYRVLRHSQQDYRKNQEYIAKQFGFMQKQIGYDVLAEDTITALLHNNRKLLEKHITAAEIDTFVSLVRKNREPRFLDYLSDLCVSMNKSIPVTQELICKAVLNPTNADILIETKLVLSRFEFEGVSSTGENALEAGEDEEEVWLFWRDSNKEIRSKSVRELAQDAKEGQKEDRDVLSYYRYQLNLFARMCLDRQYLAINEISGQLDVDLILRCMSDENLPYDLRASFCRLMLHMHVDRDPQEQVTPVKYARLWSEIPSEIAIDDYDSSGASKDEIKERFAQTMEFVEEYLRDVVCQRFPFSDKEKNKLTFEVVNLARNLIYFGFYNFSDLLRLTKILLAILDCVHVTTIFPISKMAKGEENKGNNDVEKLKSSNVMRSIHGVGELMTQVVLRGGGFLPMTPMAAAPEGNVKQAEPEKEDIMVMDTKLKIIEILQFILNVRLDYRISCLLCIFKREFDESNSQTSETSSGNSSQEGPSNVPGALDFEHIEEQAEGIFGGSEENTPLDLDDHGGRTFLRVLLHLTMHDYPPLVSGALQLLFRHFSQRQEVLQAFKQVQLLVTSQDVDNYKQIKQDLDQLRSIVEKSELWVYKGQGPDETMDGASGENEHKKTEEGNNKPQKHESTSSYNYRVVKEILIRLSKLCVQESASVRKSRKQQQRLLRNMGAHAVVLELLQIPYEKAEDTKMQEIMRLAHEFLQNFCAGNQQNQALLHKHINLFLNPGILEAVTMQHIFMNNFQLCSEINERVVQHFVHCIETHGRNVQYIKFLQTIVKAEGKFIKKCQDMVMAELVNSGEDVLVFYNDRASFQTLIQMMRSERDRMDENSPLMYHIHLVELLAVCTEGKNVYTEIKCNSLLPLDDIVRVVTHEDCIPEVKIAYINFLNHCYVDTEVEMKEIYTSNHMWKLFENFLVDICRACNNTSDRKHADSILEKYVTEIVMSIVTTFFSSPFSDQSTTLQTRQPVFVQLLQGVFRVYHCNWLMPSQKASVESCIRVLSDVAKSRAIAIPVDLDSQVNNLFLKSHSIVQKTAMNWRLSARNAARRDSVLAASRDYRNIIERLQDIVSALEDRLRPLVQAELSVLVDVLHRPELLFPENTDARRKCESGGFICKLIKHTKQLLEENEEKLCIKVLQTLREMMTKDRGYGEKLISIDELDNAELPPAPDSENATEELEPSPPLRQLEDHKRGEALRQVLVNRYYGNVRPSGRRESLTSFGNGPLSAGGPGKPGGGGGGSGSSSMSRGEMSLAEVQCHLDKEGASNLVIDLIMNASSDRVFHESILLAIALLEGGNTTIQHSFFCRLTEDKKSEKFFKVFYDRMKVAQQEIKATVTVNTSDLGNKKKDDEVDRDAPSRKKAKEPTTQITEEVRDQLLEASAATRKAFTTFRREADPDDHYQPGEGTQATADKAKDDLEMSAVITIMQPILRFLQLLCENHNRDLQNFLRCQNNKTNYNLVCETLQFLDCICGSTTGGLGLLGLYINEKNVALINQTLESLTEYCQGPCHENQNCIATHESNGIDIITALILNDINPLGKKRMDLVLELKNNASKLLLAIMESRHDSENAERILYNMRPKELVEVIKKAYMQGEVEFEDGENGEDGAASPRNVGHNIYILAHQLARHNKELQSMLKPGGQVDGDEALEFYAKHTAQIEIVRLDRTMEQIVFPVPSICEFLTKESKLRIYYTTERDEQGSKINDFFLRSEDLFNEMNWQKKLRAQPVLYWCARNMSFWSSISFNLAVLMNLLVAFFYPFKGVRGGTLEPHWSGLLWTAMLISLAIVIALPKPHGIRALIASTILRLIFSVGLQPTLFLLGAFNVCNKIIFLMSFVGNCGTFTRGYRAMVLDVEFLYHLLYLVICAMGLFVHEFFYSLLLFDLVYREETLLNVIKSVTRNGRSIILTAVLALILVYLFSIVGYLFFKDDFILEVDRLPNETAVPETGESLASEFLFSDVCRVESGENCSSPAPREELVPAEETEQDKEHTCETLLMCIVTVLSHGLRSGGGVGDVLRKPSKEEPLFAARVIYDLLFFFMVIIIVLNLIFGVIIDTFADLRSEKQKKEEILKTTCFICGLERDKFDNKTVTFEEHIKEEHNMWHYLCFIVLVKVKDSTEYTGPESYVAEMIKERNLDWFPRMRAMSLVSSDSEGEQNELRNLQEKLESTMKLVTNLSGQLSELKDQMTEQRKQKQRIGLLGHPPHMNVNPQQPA

Kd: 65 nM
Substance: Bok (from UniProt Q9UMX3)
